Test results reported in IntAct's records for PubMed 12829691.

B1: E3 ubiquitin-protein ligase CBL-B (Homo sapiens), Q13191 (parent)
chain: MANSMNGRNPGGRGGNPRKGRILGIIDAIQDAVGPPKQAAADRRTVEKTWKLMDKVVRLCQNPKLQLKNSPPYILDILPDTYQHLRLILSKYDDNQKLAQLSENEYFKIYIDSLMKKSKRAIRLFKEGKERMYEEQSQDRRNLTKLSLIFSHMLAEIKAIFPNGQFQGDNFRITKADAAEFWRKFFGDKTIVPWKVFRQCLHEVHQISSGLEAMALKSTIDLTCNDYISVFEFDIFTRLFQPWGSILRNWNFLAVTHPGYMAFLTYDEVKARLQKYSTKPGSYIFRLSCTRLGQWAIGYVTGDGNILQTIPHNKPLFQALIDGSREGFYLYPDGRSYNPDLTGLCEPTPHDHIKVTQEQYELYCEMGSTFQLCKICAENDKDVKIEPCGHLMCTSCLTAWQESDGQGCPFCRCEIKGTEPIIVDPFDPRDEGSRCCSIIDPFGMPMLDLDDDDDREESLMMNRLANVRKCTDRQNSPVTSPGSSPLAQRRKPQPDPLQIPHLSLPPVPPRLDLIQKGIVRSPCGSPTGSPKSSPCMVRKQDKPLPAPPPPLRDPPPPPPERPPPIPPDNRLSRHIHHVESVPSRDPPMPLEAWCPRDVFGTNQLVGCRLLGEGSPKPGITASSNVNGRHSRVGSDPVLMRKHRRHDLPLEGAKVFSNGHLGSEEYDVPPRLSPPPPVTTLLPSIKCTGPLANSLSEKTRDPVEEDDDEYKIPSSHPVSLNSQPSHCHNVKPPVRSCDNGHCMLNGTHGPSSEKKSNIPDLSIYLKGDVFDSASDPVPLPPARPPTRDNPKHGSSLNRTPSDYDLLIPPLGEDAFDALPPSLPPPPPPARHSLIEHSKPPGSSSRPSSGQDLFLLPSDPFVDLASGQVPLPPARRLPGENVKTNRTSQDYDQLPSCSDGSQAPARPPKPRPRRTAPEIHHRKPHGPEAALENVDAKIAKLMGEGYAFEEVKRALEIAQNNVEVARSILREFAFPPPVSPRLNL

Variants of: B1
Details: with sh3k1_human SH3KBP1, Q96B97
Sequence of sh3k1_human SH3KBP1, Q96B97 (Q96B97 whole entry): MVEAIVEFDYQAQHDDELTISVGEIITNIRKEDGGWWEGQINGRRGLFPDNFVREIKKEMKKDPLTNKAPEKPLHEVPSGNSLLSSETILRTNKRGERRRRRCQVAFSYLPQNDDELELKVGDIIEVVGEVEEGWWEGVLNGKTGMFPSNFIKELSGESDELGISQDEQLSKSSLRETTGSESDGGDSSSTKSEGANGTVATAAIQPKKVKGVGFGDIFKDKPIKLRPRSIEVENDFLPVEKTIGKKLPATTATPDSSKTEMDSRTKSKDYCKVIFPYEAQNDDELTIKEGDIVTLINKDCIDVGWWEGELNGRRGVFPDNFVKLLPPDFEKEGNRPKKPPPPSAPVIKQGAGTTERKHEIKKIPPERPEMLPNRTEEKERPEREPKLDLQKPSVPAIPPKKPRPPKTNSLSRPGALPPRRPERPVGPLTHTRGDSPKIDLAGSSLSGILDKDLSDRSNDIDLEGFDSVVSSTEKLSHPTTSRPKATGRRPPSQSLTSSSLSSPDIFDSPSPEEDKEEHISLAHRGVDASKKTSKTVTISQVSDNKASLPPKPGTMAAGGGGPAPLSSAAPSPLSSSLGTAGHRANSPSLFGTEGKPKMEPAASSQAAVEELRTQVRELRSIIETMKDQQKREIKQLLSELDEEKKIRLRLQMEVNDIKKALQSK
R911A was tested, and the “effect of a mutation on the interaction” value was “decreasing interaction”.
